# Results taken from PMC12232663, “Molecular contacts in self-assembling clusters of membrane proteins” (Proceedings of the National Academy of Sciences of the …, 2025).
# B1: Human HCN1 with a C-terminal truncation (residues 636 to 865) (natural protein, UniProt O60741 1-890, looked up)
# chain: MEGGGKPNSSSNSRDDGNSVFPAKASATGAGPAAAEKRLGTPPGGGGAGAKEHGNSVCFKVDGGGGGGGGGGGGEEPAGGFEDAEGPRRQYGFMQRQFTSMLQPGVNKFSLRMFGSQKAVEKEQERVKTAGFWIIHPYSDFRFYWDLIMLIMMVGNLVIIPVGITFFTEQTTTPWIIFNVASDTVFLLDLIMNFRTGTVNEDSSEIILDPKVIKMNYLKSWFVVDFISSIPVDYIFLIVEKGMDSEVYKTARALRIVRFTKILSLLRLLRLSRLIRYIHQWEEIFHMTYDLASAVVRIFNLIGMMLLLCHWDGCLQFLVPLLQDFPPDCWVSLNEMVNDSWGKQYSYALFKAMSHMLCIGYGAQAPVSMSDLWITMLSMIVGATCYAMFVGHATALIQSLDSSRRQYQEKYKQVEQYMSFHKLPADMRQKIHDYYEHRYQGKIFDEENILNELNDPLREEIVNFNCRKLVATMPLFANADPNFVTAMLSKLRFEVFQPGDYIIREGAVGKKMYFIQHGVAGVITKSSKEMKLTDGSYFGEICLLTKGRRTASVRADTYCRLYSLSVDNFNEVLEEYPMMRRAFETVAIDRLDRIGKKNSILLQKFQKDLNTGVFNNQENEILKQIVKHDREMVQAALPRESSSVLNTDPDAEKPRFASNL
# notes: source: HEK293S GnTI- cells (BacMam), purified (GFP-nanobody resin, SEC in LMNG:CHS), reconstituted into POPC vesicles
# Biological target: the molecule itself
# Assay: cryo-EM structure; single-particle reconstruction of purified channel reconstituted into POPC vesicles (protein:lipid 1:20, 10 mM Tris pH 8.0, 150 mM KCl); C4-symmetric map; monomers to tetramer
protein,measurement,value
B1,stoichiometry N,4
